Assay in all cases: cell-based or functional assay
One experiment has as its target GLP-1 receptor (human, UniProt P43220 24-463).
The target in a further experiment is glucagon receptor (human, UniProt P47871 26-477).
Experiment [1] has as its target T1, glucose-dependent insulinotropic peptide (gastric inhibitory polypeptide) receptor (human, UniProt P48546 22-466).
T1 sequence (looked up): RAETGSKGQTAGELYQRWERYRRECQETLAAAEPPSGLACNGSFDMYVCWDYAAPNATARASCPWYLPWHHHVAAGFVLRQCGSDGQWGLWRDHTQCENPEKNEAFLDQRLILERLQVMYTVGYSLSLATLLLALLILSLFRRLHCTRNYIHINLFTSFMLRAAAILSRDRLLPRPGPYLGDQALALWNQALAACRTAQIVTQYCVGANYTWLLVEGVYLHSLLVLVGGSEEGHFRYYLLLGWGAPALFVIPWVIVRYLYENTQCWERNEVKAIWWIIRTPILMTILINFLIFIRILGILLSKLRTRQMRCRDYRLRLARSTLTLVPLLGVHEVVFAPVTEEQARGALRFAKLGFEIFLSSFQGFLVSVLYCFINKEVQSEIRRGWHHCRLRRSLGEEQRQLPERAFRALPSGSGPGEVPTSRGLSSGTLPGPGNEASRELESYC

Starred links: 1 amine or outer side, 2 acyl side, 3 side chain; linkers in the order of their positions; H or OH if unused. Non-standard residues stand in square brackets, D forms with d. Groups on a side chain read outwards from the residue. Primed or numbered codes have the meaning given here. No end group written: not given here. *: point of attachment. γGlu = O=C(O)[C@H](CCC(=O)[*:2])N[*:1]; Stearoyl = CCCCCCCCCCCCCCCCCC(=O)*; Palmitoyl = CCCCCCCCCCCCCCCC(=O)*; αMeF = C[C@](N)(Cc1ccccc1)C(=O)O; αMeK = C[C@](N)(CCCCN)C(=O)O; αMeS = C[C@](N)(CO)C(=O)O; PEG2′ = not defined here; Aib = CC(C)(N)C(=O)O

Sequence of glucagon receptor (P47871 26-477): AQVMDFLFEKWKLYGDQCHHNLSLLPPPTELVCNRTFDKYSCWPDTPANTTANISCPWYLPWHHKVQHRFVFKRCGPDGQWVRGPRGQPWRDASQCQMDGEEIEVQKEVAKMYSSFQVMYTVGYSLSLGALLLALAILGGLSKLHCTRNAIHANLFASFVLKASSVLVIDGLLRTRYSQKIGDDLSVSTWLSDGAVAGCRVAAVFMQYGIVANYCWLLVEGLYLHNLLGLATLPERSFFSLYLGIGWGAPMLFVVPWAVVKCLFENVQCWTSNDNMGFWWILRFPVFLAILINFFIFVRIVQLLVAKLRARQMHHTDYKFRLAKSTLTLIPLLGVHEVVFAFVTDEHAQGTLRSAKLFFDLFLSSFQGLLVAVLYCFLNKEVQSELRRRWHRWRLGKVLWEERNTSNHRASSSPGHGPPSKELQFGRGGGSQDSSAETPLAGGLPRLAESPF

B1: SEQ ID NO 41 (peptide)
peptide: H[Aib]EGS[αMeF]TSDVSS[αMeF]LEGEAAK([γGlu-Palmitoyl])E[αMeF]IA[αMeF]VVKGG-NH2
modifications: N-terminus assumed
SMILES: CCCCCCCCCCCCCCCC(=O)N[C@@H](CCC(=O)NCCCC[C@H](NC(=O)[C@H](C)NC(=O)[C@H](C)NC(=O)[C@H](CCC(=O)O)NC(=O)CNC(=O)[C@H](CCC(=O)O)NC(=O)[C@H](CC(C)C)NC(=O)[C@](C)(Cc1ccccc1)NC(=O)[C@H](CO)NC(=O)[C@H](CO)NC(=O)[C@@H](NC(=O)[C@H](CC(=O)O)NC(=O)[C@H](CO)NC(=O)[C@@H](NC(=O)[C@](C)(Cc1ccccc1)NC(=O)[C@H](CO)NC(=O)CNC(=O)[C@H](CCC(=O)O)NC(=O)C(C)(C)NC(=O)[C@@H](N)Cc1c[nH]cn1)[C@@H](C)O)C(C)C)C(=O)N[C@@H](CCC(=O)O)C(=O)N[C@@](C)(Cc1ccccc1)C(=O)N[C@H](C(=O)N[C@@H](C)C(=O)N[C@@](C)(Cc1ccccc1)C(=O)N[C@H](C(=O)N[C@H](C(=O)N[C@@H](CCCCN)C(=O)NCC(=O)NCC(N)=O)C(C)C)C(C)C)[C@@H](C)CC)C(=O)O
In the case of B1, in the experiment with GLP-1 receptor, the “Primary assay EC50 (cAMP), Mean pM GLP-1R” value turned out to be 147 pM; the “Primary assay EC50 (cAMP), n1” value stood at 0.24 nM; the “Primary assay EC50 (cAMP), n2” value was 0.051 nM. In the experiment with glucagon receptor, the “Primary assay EC50 (cAMP), n1” value came out at 94 nM and the “Primary assay EC50 (cAMP), n2” value was determined as 28 nM. In experiment [1], the “Primary assay EC50 (cAMP), n1” value came out at 94 nM and the “Primary assay EC50 (cAMP), n2” value turned out to be 28 nM.

B2: SEQ ID NO 42 (peptide)
peptide: H[Aib]EGS[αMeF]TSDV[αMeS]S[αMeF]LEGEAAEE[αMeF]IA[αMeF]VV[αMeK]GG-NH2
modifications: N-terminus assumed
SMILES: CC[C@H](C)[C@H](NC(=O)[C@](C)(Cc1ccccc1)NC(=O)[C@H](CCC(=O)O)NC(=O)[C@H](CCC(=O)O)NC(=O)[C@H](C)NC(=O)[C@H](C)NC(=O)[C@H](CCC(=O)O)NC(=O)CNC(=O)[C@H](CCC(=O)O)NC(=O)[C@H](CC(C)C)NC(=O)[C@](C)(Cc1ccccc1)NC(=O)[C@H](CO)NC(=O)[C@](C)(CO)NC(=O)[C@@H](NC(=O)[C@H](CC(=O)O)NC(=O)[C@H](CO)NC(=O)[C@@H](NC(=O)[C@](C)(Cc1ccccc1)NC(=O)[C@H](CO)NC(=O)CNC(=O)[C@H](CCC(=O)O)NC(=O)C(C)(C)NC(=O)[C@@H](N)Cc1c[nH]cn1)[C@@H](C)O)C(C)C)C(=O)N[C@@H](C)C(=O)N[C@@](C)(Cc1ccccc1)C(=O)N[C@H](C(=O)N[C@H](C(=O)N[C@@](C)(CCCCN)C(=O)NCC(=O)NCC(N)=O)C(C)C)C(C)C
Turning to B2, in the experiment with GLP-1 receptor, the “Primary assay EC50 (cAMP), Mean pM GLP-1R” value is 8.7 pM; the “Primary assay EC50 (cAMP), n1” value turned out to be 0.0069 nM; the “Primary assay EC50 (cAMP), n2” value turned out to be 0.011 nM. Further, in the experiment with glucagon receptor, the “Primary assay EC50 (cAMP), n1” value was found to be 31 nM and the “Primary assay EC50 (cAMP), n2” value came to 31 nM. In experiment [1], the “Primary assay EC50 (cAMP), n1” value was found to be 31 nM and the “Primary assay EC50 (cAMP), n2” value was found to be 31 nM.
Regarding H[Aib]EGS[αMeF]TSDVSS[αMeF]LEGEAAK([PEG2′-PEG2′-γGlu-Stearoyl])E[αMeF]IA[αMeF]VVKGG-NH2 [SEQ ID NO 40], in the experiment with GLP-1 receptor, the “Primary assay EC50 (cAMP), Mean pM GLP-1R” value came out at 1170 pM; the “Primary assay EC50 (cAMP), n1” value was determined as 1.8 nM; the “Primary assay EC50 (cAMP), n2” value amounted to 0.57 nM. Moreover, in the experiment with glucagon receptor, the “Primary assay EC50 (cAMP), n1” value came to 85 nM and the “Primary assay EC50 (cAMP), n2” value came out at 26 nM. In experiment [1], the “Primary assay EC50 (cAMP), n1” value stood at 85 nM and the “Primary assay EC50 (cAMP), n2” value came to 26 nM.

B3: SEQ ID NO 44 (peptide)
peptide: H[Aib]EGS[αMeF]TSDV[αMeS]S[αMeF]LEGEAAEE[αMeF]IA[αMeF]VVEGG-NH2
modifications: N-terminus assumed
SMILES: CC[C@H](C)[C@H](NC(=O)[C@](C)(Cc1ccccc1)NC(=O)[C@H](CCC(=O)O)NC(=O)[C@H](CCC(=O)O)NC(=O)[C@H](C)NC(=O)[C@H](C)NC(=O)[C@H](CCC(=O)O)NC(=O)CNC(=O)[C@H](CCC(=O)O)NC(=O)[C@H](CC(C)C)NC(=O)[C@](C)(Cc1ccccc1)NC(=O)[C@H](CO)NC(=O)[C@](C)(CO)NC(=O)[C@@H](NC(=O)[C@H](CC(=O)O)NC(=O)[C@H](CO)NC(=O)[C@@H](NC(=O)[C@](C)(Cc1ccccc1)NC(=O)[C@H](CO)NC(=O)CNC(=O)[C@H](CCC(=O)O)NC(=O)C(C)(C)NC(=O)[C@@H](N)Cc1c[nH]cn1)[C@@H](C)O)C(C)C)C(=O)N[C@@H](C)C(=O)N[C@@](C)(Cc1ccccc1)C(=O)N[C@H](C(=O)N[C@H](C(=O)N[C@@H](CCC(=O)O)C(=O)NCC(=O)NCC(N)=O)C(C)C)C(C)C
With B3, in the experiment with GLP-1 receptor, the “Primary assay EC50 (cAMP), Mean pM GLP-1R” value amounted to 6.7 pM; the “Primary assay EC50 (cAMP), n1” value stood at 0.0065 nM; the “Primary assay EC50 (cAMP), n2” value came to 0.0069 nM. For the same molecule, in the experiment with glucagon receptor, the “Primary assay EC50 (cAMP), n1” value amounted to 31 nM and the “Primary assay EC50 (cAMP), n2” value was 31 nM. Moreover, in experiment [1], the “Primary assay EC50 (cAMP), n1” value was found to be 31 nM and the “Primary assay EC50 (cAMP), n2” value was 31 nM.

B4: SEQ ID NO 39 (peptide)
peptide: H[Aib]EGS[αMeF]TSDVSS[αMeF]LEGEAAKE[αMeF]IA[αMeF]VVKGGK([γGlu-Palmitoyl])-NH2
modifications: N-terminus assumed
SMILES: CCCCCCCCCCCCCCCC(=O)N[C@@H](CCC(=O)NCCCC[C@H](NC(=O)CNC(=O)CNC(=O)[C@H](CCCCN)NC(=O)[C@@H](NC(=O)[C@@H](NC(=O)[C@](C)(Cc1ccccc1)NC(=O)[C@H](C)NC(=O)[C@@H](NC(=O)[C@](C)(Cc1ccccc1)NC(=O)[C@H](CCC(=O)O)NC(=O)[C@H](CCCCN)NC(=O)[C@H](C)NC(=O)[C@H](C)NC(=O)[C@H](CCC(=O)O)NC(=O)CNC(=O)[C@H](CCC(=O)O)NC(=O)[C@H](CC(C)C)NC(=O)[C@](C)(Cc1ccccc1)NC(=O)[C@H](CO)NC(=O)[C@H](CO)NC(=O)[C@@H](NC(=O)[C@H](CC(=O)O)NC(=O)[C@H](CO)NC(=O)[C@@H](NC(=O)[C@](C)(Cc1ccccc1)NC(=O)[C@H](CO)NC(=O)CNC(=O)[C@H](CCC(=O)O)NC(=O)C(C)(C)NC(=O)[C@@H](N)Cc1c[nH]cn1)[C@@H](C)O)C(C)C)[C@@H](C)CC)C(C)C)C(C)C)C(N)=O)C(=O)O
Take B4: the “Primary assay EC50 (cAMP), Mean pM GLP-1R” value in the experiment with GLP-1 receptor was determined as 33 pM. The “Primary assay EC50 (cAMP), n1” value with GLP-1 receptor turned out to be 0.033 nM; with glucagon receptor, 27 nM; in experiment [1], 27 nM. Besides, the results for the “Primary assay EC50 (cAMP), n2” value (in the experiment with GLP-1 receptor; with glucagon receptor; in experiment [1]) were 0.033 nM, 27 nM and 27 nM, respectively.
Turning to H[Aib]EGSFTSDV[αMeS]S[αMeF]LEGEAAK([PEG2′-PEG2′-γGlu-Stearoyl])E[αMeF]IA[αMeF]VV[αMeK]GG-NH2 [SEQ ID NO 45], in the experiment with GLP-1 receptor, the “Primary assay EC50 (cAMP), Mean pM GLP-1R” value is 3560 pM; the “Primary assay EC50 (cAMP), n1” value stood at 3.8 nM; the “Primary assay EC50 (cAMP), n2” value is 3.3 nM. In addition, in the experiment with glucagon receptor, the “Primary assay EC50 (cAMP), n1” value was 26 nM and the “Primary assay EC50 (cAMP), n2” value was 26 nM. For the same molecule, in experiment [1], the “Primary assay EC50 (cAMP), n1” value turned out to be 26 nM and the “Primary assay EC50 (cAMP), n2” value turned out to be 26 nM.
Take H[Aib]EGS[αMeF]TSDVSS[αMeF]LEGEAAKE[αMeF]IA[αMeF]VVKGGK([PEG2′-PEG2′-γGlu-Stearoyl])-NH2 [SEQ ID NO 38]: the “Primary assay EC50 (cAMP), Mean pM GLP-1R” value with GLP-1 receptor was 72 pM. In addition, the “Primary assay EC50 (cAMP), n1” value came out at 0.062 nM with GLP-1 receptor, 25 nM in the experiment with glucagon receptor and 25 nM in experiment [1]. The results for the “Primary assay EC50 (cAMP), n2” value (in the experiment with GLP-1 receptor; with glucagon receptor; in experiment [1]) were 0.082 nM, 25 nM and 25 nM, respectively.

B5: SEQ ID NO 43 (peptide)
peptide: H[Aib]EGS[αMeF]TSDV[αMeS]S[αMeF]LEGEAA[αMeK]E[αMeF]IA[αMeF]VVEGG-NH2
modifications: N-terminus assumed
SMILES: CC[C@H](C)[C@H](NC(=O)[C@](C)(Cc1ccccc1)NC(=O)[C@H](CCC(=O)O)NC(=O)[C@](C)(CCCCN)NC(=O)[C@H](C)NC(=O)[C@H](C)NC(=O)[C@H](CCC(=O)O)NC(=O)CNC(=O)[C@H](CCC(=O)O)NC(=O)[C@H](CC(C)C)NC(=O)[C@](C)(Cc1ccccc1)NC(=O)[C@H](CO)NC(=O)[C@](C)(CO)NC(=O)[C@@H](NC(=O)[C@H](CC(=O)O)NC(=O)[C@H](CO)NC(=O)[C@@H](NC(=O)[C@](C)(Cc1ccccc1)NC(=O)[C@H](CO)NC(=O)CNC(=O)[C@H](CCC(=O)O)NC(=O)C(C)(C)NC(=O)[C@@H](N)Cc1c[nH]cn1)[C@@H](C)O)C(C)C)C(=O)N[C@@H](C)C(=O)N[C@@](C)(Cc1ccccc1)C(=O)N[C@H](C(=O)N[C@H](C(=O)N[C@@H](CCC(=O)O)C(=O)NCC(=O)NCC(N)=O)C(C)C)C(C)C
Consider B5, for which, in the experiment with GLP-1 receptor, the “Primary assay EC50 (cAMP), Mean pM GLP-1R” value worked out at 0.6 pM; the “Primary assay EC50 (cAMP), n1” value turned out to be 0.00045 nM; the “Primary assay EC50 (cAMP), n2” value came out at 0.00071 nM. For the same molecule, in the experiment with glucagon receptor, the “Primary assay EC50 (cAMP), n1” value worked out at 31 nM and the “Primary assay EC50 (cAMP), n2” value turned out to be 31 nM. Besides, in experiment [1], the “Primary assay EC50 (cAMP), n1” value turned out to be 31 nM and the “Primary assay EC50 (cAMP), n2” value is 31 nM.

Values taken from US20200079833A1 (AstraZeneca / MedImmune, published 2020).
